# T1: VapC21 toxin (Rv2757c) of the VapBC21 complex co-expressed from pET-Duet (M. tuberculosis, UniProt P9WF91 1-138)
# T1 construct: also called VapC21 (in VapBC21 complex); not shown: His6, N-terminal, kept
# T1 sequence: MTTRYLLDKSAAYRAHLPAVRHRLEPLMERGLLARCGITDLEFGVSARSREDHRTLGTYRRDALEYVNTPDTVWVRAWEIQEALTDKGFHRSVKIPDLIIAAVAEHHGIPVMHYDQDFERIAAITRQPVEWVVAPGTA
# B1: VapB21 antitoxin (Rv2758c) of the VapBC21 complex co-expressed from pET-Duet (natural protein)
# chain: MHRGYALVVCSPGVTRTMIDIDDDLLARAAKELGTTTKKDTVHAALRAALRASAARSLMNRMAENATGTQDEALVNAMWRDGHPENTA
# notes: also called VapB21 (in VapBC21 complex)
# Biological target: T1, VapC21 toxin (Rv2757c) of the VapBC21 …
# Assay: SEC-MALS
# Details: both partners purified
binder,measurement,value
B1,stoichiometry N,1 antitoxin per toxin (4:4)
